Publication doi:10.1101/2020.04.15.043133
Read-outs that look alike come from different tables or passages of the source.

Columns and labels:
[1] = biological target: iC3b biotinylated on the thioester cysteine (UniProt P01024); assay: SPR
[2] = biological target: CR3 headpiece fragment (integrin αMβ2 headpiece) (human) (UniProt P11215); assay: SEC
C3d (human) = C3d (human) (UniProt P01024); assay: SPR
[3] = biological target: iC3b biotinylated on the thioester cysteine (UniProt P01024); assay: SPR; remark: listed apart in the source

Kd [1]: 6.2 nM
fold lower koff than in the Mg2+ buffer [1]: 30 fold
stoichiometry N [2]: 2
Kd (C3d (human)): 515 nM
Kd [3]: 30 nM
Substance: CR3 headpiece fragment (integrin αMβ2 headpiece) (from UniProt P11215 17-773; P05107 23-504) (receptor)
